Measured values as given in a protein production outcome set (Wang et al. 2014).

Test: label from the status in PepcDB records

## MYMAQPGHIDHIKQINAGRVYKLIDQKGPISRIDLSKESELAPASITKITRELIDAHLIHETTVQEAISRGRPAVGLQTNNLGWQFLSMRLGRGYLTIALHELGGEVLIDTKIDIHEIDQDDVLARLLFEIEEFFQTYAAQLDRVTSIAITLPGLVNSEQGIVLQMPHYNVKNLALGPEIYKATGLPVFVANDTRAWALAEKLFGHSQDVDNSVLISIHHGLGAGIVLDGRVLQGRHGNIGELGHIQIDPQGKRCHCGNYGCLETVASSQAIRDQVTARIQAGEPSCLATVEEISIEDICAAAADGDPLAVDVIQQLGRYLGAAIAIVINLFNPEKILIGGVINQAKSILYPSIEQCIREQSLPVYHQDLKLVESRFYKQATMPGAALIKQALYDGLLLMKVVEG
  protein production: not failed

## EGDPENGEKLQITIRRGKDGFGFTICCDSPVRVQAVDSGGPAERAGLQQLDTVLQLNERPVEHWKCVELAHEIRSCPSEIILLVWRV
  protein production: not failed

## MELENIVANTVLLKAREGGGGNRKGKSKKWRQMLQFPHISQCEELRLSLERDYHSLCERQPIGRLLFREFCATRPELSRCVAFLDGVAEYEVTPDDKRKACGRQLTQNFLSHTGPDLIPEVPRQLVTNCTQRLEQGPCKDLFQELTRLTHEYLSVAPFADYLDSIYFNRFLQWKWLERQPVTKNTFRQYRVLGKGGFGEVCACQVRATGKMYACKKLEKKRIKKRKGEAMALNEKQILEKVNSRFVVSLAYAYETKDALCLVLTLMNGGDLKFHIYHMGQAGFPEARAVFYAAEICCGLEDLHRERIVYRDLKPENILLDDHGHIRISDLGLAVHVPEGQTIKGRVGTVGYMAPEVVKNERYTFSPDWWALGCLLYEMIAGQSPFQQRKKKIKREEVERLVKEVPEEYSERFSPQARSLCSQLLCKDPAERLGCRGGSAREVKEHPLFKKLNFKRLGAGMLEPPFKPDPQAIYCKDVLDIEQFSTVKGVELEPTDQDFYQKFATGSVPIPWQNEMVETECFQELNVFGLDGSVPPDLDWKGQPPAPPKKGLLQRLFSRQDCCGNCSDSEEELPTRL
  protein production: failed

## MDRMAVAEEQILLERVRRKIEEVNASGQSQLSPIQEHISFTLLIYAPLIDDELQQAYFKCSNECFEKRRKPEVTTNCVELCRVPVAKSQQQFDSDMAKFQDRMNRSLMVCQDKFEAAKLLNMNRIDAAKDMEGCVNDAAAALLGG
  protein production: failed

## VTLSSGMQALLDDKFVYLAVNQAYAEKLNLTIDQVIGKHPRDIYSKGYFESELKIYSERCLAGEIIKLEKWMRSSSGQAWFIDIEMSPYYQNDGNIYGVMVNARDIT
  protein production: failed

## MQAGSMSAPKQLVIIGAGEFAQIACEYFQHDSHYTVVAFSVERDFLLQHTLAELPVVAYEELEQRYPPEQYEVFVAIPATRLNRLRTRFFQDVVQRGYRCATYVSSRAFVWHNAQIGANCFIFEGNVIQPFTRIGDNCVLWSGNHIGHRTAVRDHVFIASHAVISGYCEIGQGSFIGVNATLSDKVHIAANNIIGAGALVTRHTEAERVYVGSPARAVAGRSSFDVEL
  protein production: failed

## MTPPIAADYTAQAVSTDTIGYLHSTESGAGVDGPGMRFVFFVSGCQFRCLYCHNPDTWKLHNGRQVSVEQALSEVAPYARFLKFAGGVTISGGEPLMQHEFVGELFHEIKQRFGLHTALDTQGFLHERVSDAWFDDVDLVMLDIKHSDPEKYQALTGQPLQPTLDFALRLKRLRKKMWIRYVLVPGLTDGDADIEKLADFAASLGDVVERVEVLPFHQLGKDKWAQLGMEYQLNDTPIPTAEQAAHARALFASRGLKVTLEHHHHHH
  protein production: not failed

## SCGDKMNKNTGALEFDSIQVNETAHLFGDTAKPACNLTINFAYPVKSTDNKLKDSLNSYFIAACFGEGYIGEKPAQVVKEYTEHYVKEYRTDLEPMYAEDEKNKESEGSIGAWYSYYKGIESHVQLYYKNLLVYRINYNEYTGGAHGIYMTTFLNMDLINLRPLKLDDIFTGDYKEALTDLLWNQLMADKKVTTHEALEDMGYGSTGDIAPTENFYLDKDGITFYYNVYDITPYAMGPVEIKIPYEMMEHMLGSNPIIGEMKSK
  protein production: not failed

## MTRPMRLAAVAAACLTMALAGCQTNGAGSTDGVVRTNEPSKGDVTSFGDAFDGLKTVSDVEYYASDQAVAEATNQFRAENYGNAGALFFKATQLAPNDGGAWMGLAASCDRIRRFDLADRAYGKAFKLVGASAEYYNNVGYSYLLRGKLQDARTSFLKAYELAPNDPTVANNLKLLSSSVQNIER
  protein production: failed

## MSSFFSVLLVLGGLIFFHELGHYLAARVLGIGVHTFSLGFGPRIFGWRSGQTDYRLSLIPLGGYVSLAGESDDEIPEGFTKGQMFSARPAWHRLIVIAAGPVFNLLLAWFIYWGLTFVHGQFIVLPEVGKVLEGGPAAAAGVQSGDRIVAIDGVSIERWDQVSDAIAASKGAPVTLSLTRNEGQHELRIVPEHRTRKTIFGDEEDAFLIGIQASGATMTLPQTPVEAAVTGARQTWTMIAMTGKGVVKLFERVVPLDTVGGPIMIAQMVSREAKDSGITGVLALAALISINLGLLNLLPIPVLDGGHIIFLGLEMLFRRPVPQKVQEVTTRMGLVLLLGLMFLATYNDIVRIGQ
  protein production: failed

## MSIPTDVVSLQIMAQVYQKKGLQSIFKKTVESLVEHVPYIDWAGIYMYDQLDYKLVAASNFEEDLRWDCNGELKFPIKNNEDKEVGMLIVRTLQPIAFDVTDVSTLETIATAIGQESYAN
  protein production: failed

## MRTWKMRKDGQRIDYLGRKWRNLGGPFMEVSRVVTWIIIITLVALAIKTILPFFSPLFFAFITAYALYPLHIKLKERIGSKNSAILLTLFLLLGALMILLILVYTLTPVIGQAYDYLTNLEKIKINIPLVPKSVISSLEGVIDEFIERGKGYLVSLTFSVPKYLLQVIVYLTFVYFFLVKEKEARELITFEDEKLIRIIERGNLTLQALIRVWLLLNIVKGILMTLGFLIFKVSNLPTAILAGLLTVLFSFIPLFEGWMIWLAGAFYLVKQGHIIAGIGLAVYGFTLVSPLPDFTIRPKLVAREAEFNDVLVLIGMIGGTWGLGLKGLIIGPIVLNVAIEMLREWKNVQAKTERS
  protein production: failed

## MCLGIPARVVEVLDGPLPMAVVDMAGEQRPCSVMYVPEVQVGQFVLLQNGYAMEVLDEKSAQESLATIAEFNLVQQVQLAPRE
  protein production: failed

## MAPSSSTFKQVADDWLKQYANDVKVSSVRAREKAIQHAIERFNTKPIQTIKKHDYQRFVDDISAQYSKNYVDSIVASTNMIFKYAYDTRLIKAMPSEGIKRPKKKLEHHHHHH
  protein production: not failed

## KPREEKRTALSKVVIRRLPPGLTKEQLEEQLRPLPAHDYFEFFAADLSLYPHLYSRAYINFRNPDDILLFRDRFDGYIFLDSKGLEYPAVVEFAPFQ
  protein production: failed

## MNDPQKLCDVNFFRPRKGYMTGEVAIIAAVLVGWAVANFGFQGVLALLAQSPDGEGILTRLTFLSFPWHFWFTGQFLPLWFIILCVLFNIYIDRHTEQHSRRRDRSHD
  protein production: failed

## MLFWGSAFNAMSYVIQYMPPLSAAAERFTIASLGLFILFAAIGKLRWAALRQNLAIYLIIGIIGIAGFNLGCFYGLQTTSAVNGALIMATTPLITLLLTILLDGEKLTLNKSIGVVFGLSGVLFVISHGHISTLLHLKIAIGDLFILLGGVSFCLANMLSRRYVKNATPLETTTFSMMSGALTLIILSVIFEHPSQAIAMAPITAHLAMGYVIICSTMIAYLFWFNGIQKLGAGRASIFFNFVPVFSMLVALLAGQSLNIWQLIGTALVMLGVMSSGGFIQIKRPTLIAKPCTK
  protein production: failed

## VQRCVIIQKDQHGFGFTVSGDRIVLVQSVRPGGAAMKAGVKEGDRIIKVNGTMVTNSSHLEVVKLIKSGAYVALTLLGSS
  protein production: not failed

## MKVSLGNGEMGVSAHLQPCKAGTTRFFTSNTHSSVVLQGFDQLRIEGLLCDVTLVPGDGDEIFPVHRAMMASASDYFKAMFTGGMKEQDLMCIKLHGVNKVGLKKIIDFIYTAKLSLNMDNLQDTLEAASFLQILPVLDFCKVFLISGVSLDNCVEVGRIANTYNLIEVDKYVNNFILKNFPALLSTGEFLKLPFERLAFVLSSNSLKHCTELELFKAACRWLRLEDPRMDYAAKLMKNIRFPLMTPQDLINYVQTVDFMRTDNTCVNLLLEASNYQMMPYMQPVMQSDRTAIRSDSTHLVTLGGVLRQQLVVSKELRMYDERAQEWRSLAPMDAPRYQHGIAVIGNFLYVVGGQSNYDTKGKTAVDTVFRFDPRYNKWMQVASLNEKRTFFHLSALKGHLYAVGGRSAAGELATVECYNPRMNEWSYVAKMSEPHYGHAGTVYGGLMYISGGITHDTFQNELMCFDPDTDKWMQKAPMTTVRGLHCMCTVGDKLYVIGGNHFRGTSDYDDVLSCEYYSPTLDQWTPIAAMLRGQSDVGVAVFENKIYVVGGYSWNNRCMVEIVQKYDPEKDEWHKVFDLPESLGGIRACTLTVFPPEENPGSPSRESPLSAPSDHS
  protein production: failed

## MISLPYLQRFALSGQVALVTGSARGLGLRIAQALAGSGAHVLLNGRDAHAVEAAVSDLRQQGLRASALPFDVSDEQATEQAFARIDAEHGRLDILVNNVGARNRKPLAETSPAEIRAMMDTNLVAGILLARLAAQRMVRQRYGRLIAITSVAGELARANDAVYPAAKQGLTGMMRALAVEFGRHGITSNAIAPGAFATETNAAMANDPQAGAAMAARNPTGRWGDPEEIAGAAVFLASPAASYVNGHVLVVDGGLSVQF
  protein production: failed

## PAMICRYRPDLTLTFGNRPLAAYLECAPEELPGSNLGQWLSAEQREGFERRLKLLSPEYPVSTAEINLQLPGREHAWWVWSDRGVFDEQGQLLEIQAVGRDNTEVRRAQQQLTQSAKMATLGEMATGLAHEINQPLNVMRMAIVNVLKRLGNG
  protein production: failed

## MGVVLARGAFRERSMLTLPDFPLPDARGRFGPYGGRYVPETLIPALEELEAAYREAKKDPAFLEELDHYLRQFAGRPTPLYHAKRLSEYWGGAQVFLKREDLLHTGAHKINNTLGQALLARRMGKRRVIAETGAGQHGVSVATVAALFGLECVVYMGEEDVRRQALNVFRMKLLGAEVRPVAAGSRTLKDATNEAIRDWITNVRTTFYILGSVVGPHPYPMMVRDFQSVIGEEVKRQSLELFGRLPDALIAAVGGGSNAIGLFAPFAYLPEGRPKLIGVEAAGEGLSTGRHAASIGAGKRGVLHGSYMYLLYDHDGQITPAHSVSAGLDYPGVGPEHSYYADAGVAEYASVTDEEALEGFKLLARLEGIIPALESAHAIAYAAKVVPEMDKDQVVVINLSGRGDKDVTEVMRLLGGEL
  protein production: not failed

## MSRTLVLFDIDGTLLKVESMNRRVLADALIEVYGTEGSTGSHDFSGKMDGAIIYEVLSNVGLERAEIADKFDKAKETYIALFRERARREDITLLEGVRELLDALSSRSDVLLGLLTGNFEASGRHKLKLPGIDHYFPFGAFADDALDRNELPHIALERARRMTGANYSPSQIVIIGDTEHDIRCARELDARSIAVATGNFTMEELARHKPGTLFKNFAETDEVLASILTPKHS
  protein production: not failed

## KFAYKVGIGLEVPFANTNIWSFQTGLNFISKGVKGDGVTDAWDVVDVTINQLYLELPLMVGARIHTASNFDLLFKGGPYLAYGVGGKTKIDGVSEKADTFGDDGLKRFDAGLGLGVAFEFGNIVVGVETGTSFTKVASGVSAHNLSALATIGYKF
  protein production: failed

## MGMMSSLRRLGKRRPVLGILFVVVLSIGLVGSYAIFSTPKAPVAPSESQAQAPDANQQAEAMQKAAQEQISKLETDIANLQKDLQAKPGDIATAVKLGDSQYNLGTLYLFVNGDQEKATQTFKAAVATYQQVLKLNPAEKGINLRLAGAALYAGDSKLAEDNFQAAIKADPNDNNARMTYGMYLASMKGDYQGAIDQWQEILKHNPDKDLATQVQEMIKQAETAKQDANKSAANQPPANQPQANGGQGSGK
  protein production: failed

## NEHEYAYIMQTSGSTGKPKRIAVSYSNLHCYISQIDKLFPLNAQDRVGQYSDLTFDLSVHDIFYSLISGACLYVVPELAKLSPAEFIHHHQLTVWLSVPTVIELALQRQTLTPHSLPSLRLSFFCGQALLHDLAEQWQQATQQPVINLYGPTECTIAVTYHRFVAHSGMASV
  protein production: failed
